{"source": "patent US20240400652A1", "target": "SARS-CoV-2 spike with Y453F (SARS-CoV-2) (UniProt P0DTC2)", "assay": "cell-based or functional assay"}
{"substance": "REGN10987 (antibody)", "values": [{"measurement": "decrease in neutralization, live virus or pseudovirus (fold decrease)", "value": 4}]}
